Laboratory results reported in patent publication US20200165312A1, “COSMETIC COMPOSITION FOR IMPROVING SKIN CONDITIONS COMPRISING FUSION PROTEIN INCLUDING SKIN PENETRATION ENHANCING PEPTIDE” (LG HOUSEHOLD & HEALTH CARE LTD., priority 2017, published 2020).

B1: T-KGF: SEQ ID NO: 1 peptide C-terminal linked to N-terminal of KGF via GG linker (protein)
chain: NGSLNTHLAPILGGCNDMTPEQMATNVNCSSPERHTRSYDYMEGGDIRVRRLFCRTQWYLRIDKRGKVKGTQEMKNNYNIMEIRTVAVGIVAIKGVESEFYLAMNKEGKLYAKKECNEDCNFKELILENHYNTYASAKWTHNGGEMFVALNQKGIPVRGKKTKKEQKTAHFLPMAIT
modifications: Synthetic Fusion protein of T-KGF
B2: KGF: keratinocyte growth factor having an amino acid sequence of SEQ ID NO: 44 (protein)
chain: CNDMTPEQMATNVNCSSPERHTRSYDYMEGGDIRVRRLFCRTQWYLRIDKRGKVKGTQEMKNNYNIMEIRTVAVGIVAIKGVESEFYLAMNKEGKLYAKKECNEDCNFKELILENHYNTYASAKWTHNGGEMFVALNQKGIPVRGKKTKKEQKTAHFLPMAIT
modifications: Human KGF
B3: T-VEGF: SEQ ID NO: 1 peptide C-terminal linked to N-terminal of VEGF via GG linker (protein)
chain: NGSLNTHLAPILGGAPMAEGGGQNHHEVVKFMDVYQRSYCHPIETLVDIFQEYPDEIEYIFKPSCVPLMRCGGCCNDEGLECVPTEESNITMQIMRIKPHQGQHIGEMSFLQHNKCECRPKKDRARQENPCGPCSERRKHLFVQDPQTCKCSCKNTDSRCKARQLELNERTCRCDKPRR
modifications: Synthetic Fusion protein of T-VEGF

Experiments:
dermal papilla cells = assay: Hair follicle stem cell proliferation: dermal papilla cells, Cell Counter Kit-8; format: cell-based; details: for Proliferation (%): one day, control = 100; for cell proliferation effect compared with the unfused protein: dermal papilla cells
Procedure: (§1) Specifically, dermal papilla cells were inoculated onto a 96-well plate and cultured for 24 hours to obtain cultures at a density of 6,000 cells per well. The cultures were washed with PBS and cultured in a serum-free DMEM medium for one day. The cells were washed with PBS again and cultured in a serum-free DMEM medium supplemented with 1 ng/mL T-PDGFa or PDGFa for one day. The cultures were obtained therefrom and a difference between proliferated amounts of cells was quantitively analyzed using the Cell Counter Kit-8 (Dojindo). Here, dermal papilla cells cultured in a serum-free DMEM medium without T-PDGFa or PDGFa were used as a control (Table 6).
(§2) Specifically, dermal papilla cells were inoculated onto a 96-well plate and cultured for 24 hours to obtain cultures at a density of 6,000 cells per well. The cultures were washed with PBS and cultured in a serum-free DMEM medium for one day. […] The cultures were obtained therefrom and a difference between proliferated amounts of cells was quantitively analyzed using the Cell Counter Kit-8 (Dojindo).
as §1, with “T-IGF-1” for “T-PDGFa”, “IGF-1” for “PDGFa”, “15).” for “6).”
as §1, with “10” for “1”, “T-KGF” for “T-PDGFa”, “KGF” for “PDGFa”, “19).” for “6).”
as §1, with “10” for “1”, “T-Tβ4” for “T-PDGFa”, “Tβ4” for “PDGFa”, “23).” for “6).”

skin keratinocytes = assay: Keratinocyte growth (skin barrier strengthening), Cell Counter Kit-8; format: cell-based; details: for Production (%) (keratinocyte growth): 100 ng/mL T-KGF or KGF, one day, control = 100
Procedure: (§3) Specifically, skin keratinocytes were cultured in a 96-well plate for one day to obtain cultures at a density of 6,000 cells per well. The cultures were washed with PBS and cultured in a serum-free DMEM medium for one day. The cells were washed with PBS again and cultured in a serum-free DMEM medium supplemented with 100 ng/mL T-IGF-1 or IGF-1 for one day. The cultures were obtained therefrom and a difference between proliferated amounts of cells was quantitively analyzed using the Cell Counter Kit-8 (Dojindo). Here, skin keratinocytes cultured in a serum-free DMEM medium without T-IGF-1 or IGF-1 were used as a control (Table 14).
Specifically, skin keratinocytes were cultured in a 96-well plate for 24 hours to obtain cultures at a density of 6,000 cells per well.
as §3, with “The” for “Specifically, skin keratinocytes were cultured in a 96-well plate for one day to obtain cultures at a density of 6,000 cells per well. The”, “T-KGF” for “T-IGF-1”, “KGF” for “IGF-1”, “18).” for “14).”

[1] = tested on: human umbilical vein endothelial cells; assay: Endothelial cell proliferation, Cell Counter Kit-8; format: cell-based
Procedure: as §2, with “human umbilical vein endothelial” for “dermal papilla”, “5,000” for “6,000”, “M199” for “DMEM”, “16 hours.” for “one day.”
Specifically, human umbilical vein endothelial cells were inoculated onto a 96-well plate and cultured for 24 hours to obtain cultures at a density of 5,000 cells per well. The cultures were washed with PBS and cultured in a serum-free M199 medium for 16 hours. The cells were washed with PBS again and cultured in a serum-free M199 medium supplemented with 100 ng/mL T-Tβ4 or Tβ4 for one day. The cultures were obtained therefrom and a difference between proliferated amounts of cells was quantitively analyzed using the Cell Counter Kit-8 (Dojindo). Here, human umbilical vein endothelial cells cultured in a serum-free M199 medium without T-Tβ4 or Tβ4 were used as a control (Table 22).

dermal fibroblasts = assay: Hyaluronic acid (HA) production in dermal fibroblasts (ELISA); format: cell-based, human; details: two days
Procedure: (§4) Specifically, dermal fibroblasts were inoculated onto a 24-well plate and cultured for 24 hours to obtain cultures having a saturation degree of 70 to 80%. The cultures were washed with PBS and cultured in a serum-free DMEM medium including 10 ng/mL T-PDGFa or PDGFa for two days. A supernatant was obtained therefrom and the amount of hyaluronic acid (HA) produced and released in the culture solution was quantitively analyzed using an ELISA kit (R&D Systems) (Table 5).
as §4, with “The cultures were washed with PBS and cultured in a serum-free DMEM medium including 10 ng/mL T-PDGFa or PDGFa for two days.” left out, “9).” for “5).”

| Molecule | Proliferation (%) (dermal papilla cells; 10 ng/mL T-KGF or KGF) | cell proliferation effect compared with the unfused protein (dermal papilla cells) | Production (%) (keratinocyte growth) (skin keratinocytes) | effect in keratinocyte growth test compared with the unfused protein (skin keratinocytes; skin keratinocytes, 100 ng/mL) | Proliferation (%) ([1]; 100 ng/mL T-VEGF or VEGF, serum-free M199, one day, control = 100) | cell proliferation effect compared with the unfused protein ([1]; human umbilical vein endothelial cells, 100 ng/mL) | Production (%) of hyaluronic acid (HA) (dermal fibroblasts; 10 ng/mL T-VEGF or VEGF, control = 100) [%] | hyaluronic acid producing effect compared with the unfused protein (dermal fibroblasts; 10 ng/mL) | Proliferation (%) (dermal papilla cells; 1 ng/mL T-VEGF or VEGF) |
| --- | --- | --- | --- | --- | --- | --- | --- | --- | --- |
| B1 | 270 ± 15 | same level | 590 ± 27 | same level |  |  |  |  |  |
| B2 | 360 ± 35 |  | 620 ± 25 |  |  |  |  |  |  |
| B3 |  | same level |  |  | 185 ± 15 | same level | 230 ± 18 | same level | 310 ± 20 |
